# Results as given in the RNAGym collection of RNA variant scans (doi:10.1073/pnas.2313332121).
# This sample holds only a part of the variants without activity.
# B1: TPR 5TU (parent)
# chain: GGAUCUUCUCGAUCUAACAAAAAAGACAAAUCUGCCACAAAGCUUGAGAGCAUCUUCGGAUGCAGAGGCGGCAGCCUUCGGUGGCGCGAUAGCGCCAACGUUCUCAACUAUGACACGCAAAACGCGUGCUCCGUUGAAUGGAGUUUAUCAUG
# Variants of: B1
# Assay: polymerase ribozyme fitness, log enrichment relative to wild type (log ratio); higher = more active; in vitro selection for triplet polymerase activity
# Procedure, shortened: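 Fitness compares each genotype's enrichment to that of the wild type on a logarithmic scale, averaging replicates with inverse-variance weights. The logarithm is base 2. Enrichment came from Illumina sequencing of input and output libraries after one triplicate round of in vitro selection, which included frozen incubation at −7 °C, of PCR-built, transcribed mutant libraries of each subunit of a heterodimeric triplet polymerase ribozyme. Only genotypes with ≥10 input reads and ≥1 read per output were kept.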
row,Variant,polymerase ribozyme fitness (log ratio)
1,GGAUCUUCUCGAUCUAACAAAAAAGACAAAUCUGCCACAAAGCUUGAGAGCAUCUUCGGAUGCAGAGGCGGCAGUCUUCGGUGUCGCGAUAGCGCCAACGUUCUCAACUAUGACACGCAAAACGCGUGCUCCGUUGAAUGGAGUUUAUCAUG,-2.45
2,GGAUCUUCUCGAUCUAACAAAAAAGACAAAUCUGCCACAAAGCUUGAGAGCAUCUUCGGAUGCAGAGGCGGCAGCAUUUGGUGGCGCGAUAGCGCCAACGUUCUCAACUAUGACACGCAAAACGUGUGCUCCGUUGAAUUGAGUUUAUCAUG,≤ -4.2
3,GGAUCUUCUCGAUCUAACAAAAAAGACAAAUCUGCCACAAAGCUUGAGAGCAUCUUCGGAUGCAGAGGCGGCAGUCUUCGGUGGCGCGAUAGCGCCAACGUUCUCAACUAUGACACGCAAAACGCGUGCUCCGAUGAAUGGAGUUUAUCAUG,-1.13
4,GGAUCUUCUCGAUCUAACAAAAAAGACAAAUCUGCCACAAAGCUUGAGAGCAUCUUCGGAUGCAGAGGCGGCAGUCUUCCGUGGCGCGAUGGCGCCUACGUUCUCAACUAUGACACGCAAAGCGCGUGCUCCGUUGAAUGGAGUUUAUCAUG,≤ -4.2
5,GGAUCUUCUCGAUCUAACAAAAAAGACAAAUCUGCCACAAAGCUUGAGAGCAUCUUCGGAUGCAGAGGCGGCAGUCUCCGGUGACGCGAUAGCGCCAACGUUCUCAACUAUGACACGCAAAACGCGUGCUCCGUUGAAUGGAGUUUAUCAUG,-1.65
6,GGAUCUUCUCGAUCUAACAAAAAAGACAAAUCUGCCACAAAGCUUGAGAGCAUCUUCGGAUGCAGAGGCGGCAGCAUUCGGUGGCGCGAUAGCGCCAACGUUCUCAACUAUGACACGCAAAACGCGUGCUCCGUUGAAUGGAGUUUAUCAUG,-0.118
7,GGAUCUUCUCGAUCUAACAAAAAAGACAAAUCUGCCACAAAGCUUGAGAGCAUCUUCGGAUGCAGAGGCGGCAGCAUUCGGUGGCGCGAUGGCGCCAACGUUCUCAACUAUGACACGCAAAACGCGUGCUCCGUUGAAUGGAGUUUAUCAUG,-3.83
8,GGAUCUUCUCGAUCUAACAAAAAAGACAAAUCUGCCACAAAGCUUGAGAGCAUCUUCGGAUGCAGAGGCGGCAGCAUUCGGUGGCGCGAUUGCGCCAACGUUCUCAACUAUGACACGCAAAACGCGUGCUCCGUUGAAUGGAGUUUAUCAUG,≤ -4.2
9,GGAUCUUCUCGAUCUAACAAAAAAGACAAAUCUGCCACAAAGCUUGAGAGCAUCUUCGGAUGCAGAGGCGGCAGUCUUCGGUGGCGCGAUAGCGCCAACGUUCUCAACUAUGACACGCAAAACGCGUACUCCGUUGAAUGGAGUUUAUCAUG,-3.95
10,GGAUCUUCUCGAUCUAACAAAAAAGACAAAUCUGCCACAAAGCUUGAGAGCAUCUUCGGAUGCAGAGGCGGCAGUCUUCGGUGGCGCGAUAGCGCCAACGUUCUCAACUAUGACACGCAAAACGCGUUCUCCGUUGAAUGGAGUUUAUCAUG,-3.28
11,GGAUCUUCUCGAUCUAACAAAAAAGACAAAUCUGCCACAAAGCUUGAGAGCAUCUUCGGAUGCAGAGGCGGCAGUCUUCGGUGGCGCGACUGGUCCACCGUUCUCAACUAUGACACGCAAAACGCGUGCUCCGUUGAAUGGAGUUUAUCAUG,≤ -4.2
12,GGAUCUUCUCGAUCUAACAAAAAAGACAAAUCUGCCACAAAGCUUGAGAGCAUCUUCGGAUGCAGAGGCGGCAGUCUUCGGUGGCGCGAUAGCGCGAACGUUCUCAACUAUGACACGCAAAACGCGUGCUCCGUUGAAUGGAGUUUAUCAUG,0.716
13,GGAUCUUCUCGAUCUAACAAAAAAGACAAAUCUGCCACAAAGCUUGAGAGCAUCUUCGGAUGCAGAGGCGGCAGCAUUCGGUGGAGCGAUAGCGCCAACGUUCUCAACUAUGACACGCAAAACGCGUGCUCCGUUGAAUGGAGUUUAUCAUG,-1.96
14,GGAUCUUCUCGAUCUAACAAAAAAGACAAAUCUGCCACAAAGCUUGAGAGCAUCUUCGGAUGCAGAGGCGGCAGUCUUCGGUGGCGCGAUAUGGCCAACGUUCUCAACUAUGACACGCAAAACGCGUGCUCCGUUGAAUGGAGUUUAUCAUG,-1.13
15,GGAUCUUCUCGAUCUAACAAAAAAGACAAAUCUGCCACAAAGCUUGAGAGCAUCUUCGGAUGCAGAGGCGGCAGUCUUCGGUGGCGCGAUACCGCCAACGUUCUCAACUAUGACACGCAAAACGCGUGCUCAGUUGAAUGGAGUUUAUCAUG,≤ -4.2
16,GGAUCUUCUCGAUCUAACAAAAAAGACAAAUCUGCCACAAAGCUUGAGAGCAUCUUCGGAUGCAGAGGCGGCAGUCUUCGGUGGCGCGAUAGCCCCAACUUUCUCAGCUAUGACACGCAAAACGCGUGCUCCGUUGAAUGGAGUUUAUCAUG,≤ -4.2
17,GGAUCUUCUCGAUCUAACAAAAAAGACAAAUCUGCCACAAAGCUUGAGAGCAUCUUCGGAUGCAGAGGCGGCAGUCUUCGGUGGCCCGAUAGCGCCAACGUUCUCAACUAUGACUCGCAAAACGCGUGCUCCGUUGAAUGGAGUUUAUCAUG,-2.41
18,GGAUCUUCUCGAUCUAACAAAAAAGACAAAUCUGCCACAAAGCUUGAGAGCAUCUUCGGAUGCAGAGGCGGCAGCAUUCGGUGGCGCGAUAGCGCCAACGUUCUCAACUAUGACACGCAAAUCGCGUGCUCCGUUGAAUGGAGUUUAUCAUG,0.592
19,GGAUCUUCUCGAUCUAACAAAAAAGACAAAUCUGCCACAAAGCUUGAGAGCAUCUUCGGAUGCAGAGGCGGCAGCAUUCGGUGGCGCGAUAGCGCCAACGUUCUCAACUAUGACACGCAAAGCGCGUGCUCCGUUGAAUGGAGUUUAUCAUG,-0.466

row,Variant,polymerase ribozyme fitness (log ratio)
1,GGAUCUUCUCGAUCUAACAAAAAAGACAAAUCUGCCACAAAGCUUGAGAGCAUCUUCGGAUGCAGAGGCGGCAGCAUUCGGUGGCGCGAUAGCGCCAACGUUCUCAACUAUGACACGCUAAACGCGUGCUCCGUCGAAUGGAGUUUAUGAUG,≤ -4.2
2,GGAUCUUCUCGAUCUAACAAAAAAGACAAAUCUGCCACAAAGCUUGAGAGCAUCUUCGGAUGCAGAGGCGGCAGUCUUCGGUGUCGCGAUAGCGCCAACGCUCUCAACUAUGACACGCAAAACGCGUGCUCCGUUGAAUGGAGUUUAUCAUG,-1.45
3,GGAUCUUCUCGAUCUAACAAAAAAGACAAAUCUGCCACAAAGCUUGAGAGCAUCUUCGGAUGCAGAGGCGGCAGCAUUUGGUGGCGCGAUAGCGCAAACGUUCUCAACUAUGACACGCAAAACGCGUGCUCCGUUGAAAGGAGUUUAUCAUG,≤ -4.2
4,GGAUCUUCUCGAUCUAACAAAAAAGACAAAUCUGCCACAAAGCUUGAGAGCAUCUUCGGAUGCAGAGGCGGCAGUCUUCGGUGGCGCAAUAGCGCCAACGUUCUCAACUAUGACACGCUAAACGCGUGCUCCGUUGAAUGGAGUUUAUCAUG,≤ -4.2
5,GGAUCUUCUCGAUCUAACAAAAAAGACAAAUCUGCCACAAAGCUUGAGAGCAUCUUCGGAUGCAGAGGCGGCAGUCUUCGGUGGCGCGAUAGCCCCAACGUUCUCAACUAUGACACGCAAAGCGCGUGCUCCGUUGAAUGGAGUAUAUCAUG,-3.35
6,GGAUCUUCUCGAUCUAACAAAAAAGACAAAUCUGCCACAAAGCUUGAGAGCAUCUUCGGAUGCAGAGGCGGCAGUCUUCGGUGGCGCGAUAGCCCCAACGUUCUCAACUAUGACACGCAAAACGCGUGCUCCGUUGAAUGGCGUUUAUCAUG,-2.58
7,GGAUCUUCUCGAUCUAACAAAAAAGACAAAUCUGCCACAAAGCUUGAGAGCAUCUUCGGAUGCAGAGGCGGCAGUCUUCGGUGGCGCGAUAGCGCCAACGUUCUCAACUAUGACACGCAAAACGCGUGCUCCGUUGAAUGGAGUCGAUCAUG,-0.419
8,GGAUCUUCUCGAUCUAACAAAAAAGACAAAUCUGCCACAAAGCUUGAGAGCAUCUUCGGAUGCAGAGGCGGCAGCAUUCGGUGGCGCGAUAGCGCCAACGUUCUCAACUAUGACACGCAAAACGCGUGCUCCGUUGAUUGGAGUUUAUCAUG,-4.05
9,GGAUCUUCUCGAUCUAACAAAAAAGACAAAUCUGCCACAAAGCUUGAGAGCAUCUUCGGAUGCAGAGGCGGCAGUCUUCGGUGGCGCGAUAGCGCCAACGUUCUCAACUAUGACACGCAAAACGCGUGCUCCGUUCAAUGGAGUUUAUCAUG,-2.6
10,GGAUCUUCUCGAUCUAACAAAAAAGACAAAUCUGCCACAAAGCUUGAGAGCAUCUUCGGAUGCAGAGGCGGCAGUCUUCGGUUGCGCGAUAGCGCCAACGUUCUCAACUAUGACACGCAAAACGCGUGGUCCGUUGAAUGGAGGUUAUCAUG,≤ -4.2
11,GGAUCUUCUCGAUCUAACAAAAAAGACAAAUCUGCCACAAAGCUUGAGAGCAUCUUCGGAUGCAGAGGCGGCAGUCUUCCGUGGCGCGAUAGCGCCAACGUUCUCAUCUAUGACACGCAAAACGCGUGCUCCGUUGAAUGGAGUUUAUCAUG,≤ -4.2
12,GGAUCUUCUCGAUCUAACAAAAAAGACAAAUCUGCCACAAAGCUUGAGAGCAUCUUCGGAUGCAGAGGCGGCAGUCUUCGGUGGCGCGAUAGCGCCAACGUUCUCAACUAUGACACGCAAAACGCGUGCUCCGUUGAAUGGAGCUUAUCAUG,-0.607
13,GGAUCUUCUCGAUCUAACAAAAAAGACAAAUCUGCCACAAAGCUUGAGAGCAUCUUCGGAUGCAGAGGCGGCAGUCUUCGGUGUCGCGAUAGCGCCAACGUUCUCAACUAUGACACGCAAAACGCGUGCUCCGUUGAAUGGAGUUUAACAUG,≤ -4.2
14,GGAUCUUCUCGAUCUAACAAAAAAGACAAAUCUGCCACAAAGCUUGAGAGCAUCUUCGGAUGCAGAGGCGGCAGUCUUCGGUGGCGCGAUAUCGCCAACGUUCUCAACUAUCUGACGCAAAACGCGUGCUCCGUUGAAUGGAGUUUAUCAUG,≤ -4.2
15,GGAUCUUCUCGAUCUAACAAAAAAGACAAAUCUGCCACAAAGCUUGAGAGCAUCUUCGGAUGCAGAGGCGGCAGUCUUCGGUAGCGCGAUAGCGCCAACGUUCUGAACUAUGACACGCAAAACGCGUUCUCCGAUGAUUGUAGUUUAUCAUG,≤ -4.2
16,GGAUCUUCUCGAUCUAACAAAAAAGACAAAUCUGCCACAAAGCUUGAGAGCAUCUUCGGAUGCAGAGGCGGCAGCAUUCGGUGGCGCGAUAGCGCCAACGUUCUCAACUAUGACACGCAAAACGCGUGCUCCGUUGAAUGGGGUUAAUCAUG,-1.52
17,GGAUCUUCUCGAUCUAACAAAAAAGACAAAUCUGCCACAAAGCUUGAGAGCAUCUUCGGAUGCAGAGGCGGCAGCAUUCGGUGGCGCGAUAGCGCCAUCGUUCUCAACUAUGACACGCAAAACGCGUGCUCCGUUGAAUGGAGUUUAUCAUG,-0.0442
18,GGAUCUUCUCGAUCUAACAAAAAAGACAAAUCUGCCACAAAGCUUGAGAGCAUCUUCGGAUGCAGAGGCGGCAGUCUUCGGUGGCGCGAUAGCGCCAACGUUCUCAACUAUGACACGCAAAACGCGUGCUCCGUUGAAACGAGUUUAUCAUG,-4.11
19,GGAUCUUCUCGAUCUAACAAAAAAGACAAAUCUGCCACAAAGCUUGAGAGCAUCUUCGGAUGCAGAGGCGGCAGCAUUCGGUGGCGCGAUAGCGCCGACGUUCUCAACUAUGACACGCAAAACGCGUGCUCCGUUGAAUGGAGUUUAUCAUG,-1.4
